Publication PMC6191539, “NadA3 Structures Reveal Undecad Coiled Coils and LOX1 Binding Regions Competed by Meningococcus B Vaccine-Elicited Human Antibodies” (mBio, 2018)

Biological target: T1, full-length human LOX-1 fused to yellow fluorescent protein, expressed on CHO-K1 cells (human, UniProt P78380 1-273)
T1 construct: LOX-1 (low-density oxidized lipoprotein lectin-like receptor 1), human, full length, on transfected CHO-K1 cells; pEYFP-N1 usually places the YFP at the C-terminus of the insert (surmise); also called low-density oxidized lipoprotein lectin-like receptor 1; LOX-1-expressing cells; source: CHO-K1 cells, transiently transfected (pEYFP-N1 vector), on live cells
Assay: flow cytometry on cells; CHO-K1 cells transiently expressing human LOX-1-YFP mixed with NadA3 protein (200 µg/ml) for 30 min at 37°C; detected with mouse polyclonal anti-NadA3 and APC-conjugated secondary antibody
Conditions: one partner purified

B1: NadA3 24–170 K68A K69A D70A mutant (domain or fragment)
chain: ATNDDDVKKAATVAIAAAYNNGQEINGFKAGETIYDIDEDGTITAAAATAADVEADDFKGLGLKKVVTNLTKTVNENKQNVDAKVKAAESEIEKLTTKLADTDAALADTDAALDATTNALNKLGENITTFAEETKTNIVKIDEKLEA
notes: NadA3, N. meningitidis serogroup B strain 2996, UniProt Q8KH85, residues 24-170 with K68A, K69A and D70A
In the case of B1, the “percent doubly positive cells (LOX-1 and NadA)” value is reported as 49.8%.
